According to the RNAGym collection of RNA variant scans (doi:10.1101/gr.219683.116):

B1: mRNA-splicing (parent)
chain: AGUUGCUGCUGGGAGCUCCAGCACAGUGAAAUGGACAGAAGGGCAGAGCAA

Variants of: B1
Assay: exon inclusion enrichment index; higher = more inclusion; WT1 exon 5 minigene, HEK293

Row | Variant | exon inclusion enrichment index
1 | G5C C6G U7C U10C G41C | 4.53
2 | G5C C6A U7C G8A U10A G34A A35U | 0.0204
3 | G5C C6U G8C C9U U10C A45U G46A | 1.39
4 | G5A C6G U7G C9A G26A U27G | 0.00208
5 | G5C C6A U7C G8A U10A A45C G46A | 0.0623
6 | G5C C6G U7C U10C G42A G43C | 5.39
7 | G5U G8U C9U G38A | 0.0418
8 | C6A U7A C9A U10A A25G | 1.94
9 | G5C C6G U7C U10C A40U G41U | 2.15
10 | C6A U7C C9A U10C C44A | 4.44
11 | C9U U10A | 0.0452
12 | G5A C6G U7G C9A G11C G12U | 0.00113
13 | G5C C6A U7C G8A U10A C22U | 0.0831
14 | G5C C6G U7C U10C U32C G33U | 2.45
15 | C6A U7A C9A U10A C36A A37C | 0.81
16 | C6A U7C C9A U10C G33U | 1.97
17 | G5U G8U C9U G43A | 0.671
18 | G5C C6G U7C U10C A25C G26U | 4.06
19 | G5A C6G U7G C9A C36G A37U | 0.00107
20 | C6A U7A C9A U10A U32A G33A | 0.234
21 | G5C C6A U7C G8A U10A G42A G43A | 1.43

Row | Variant | exon inclusion enrichment index
22 | G5C C6A U7C G8A U10A G38U A39G | 0.0343
23 | C6A U7C C9A U10C C22G A23G | 2.55
24 | G5C C6U G8C C9U U10C G26U | 2.06
25 | C6A U7A C9A U10A A35C | 0.237
26 | G5A C6U U7A G8U C9A A20C | 0.047
27 | G5C C6G U7C U10C A20C G21A | 1.97
28 | G5C C6U G8C C9U U10C G26C U27C | 3.12
29 | U4A G5U C6G U7G C9A | 0.0707
30 | U3C | 0.011
31 | C6A U7A C9A U10A U27G G28C | 0.369
32 | C6G U7A G8U C9A | 0.349
33 | C6A U7C C9A U10C A14G G15C | 2.29
34 | G5U G8U C9U G34U | 0.0349
35 | G5A C6G U7G G8U C9A | 0.00192
36 | G5A C6G U7G G8U C9U | 0.00149
37 | G5C C6U G8C C9U U10C A39G | 0.96
38 | G5C C6U G8C C9U U10C A39C | 0.436
39 | U4C G5A C6A U7C G8A U10A | 0.437
40 | G46C A47C | 0.227
41 | A20U G21C | 2.37
42 | G28A A29C | 0.0703

Row | Variant | exon inclusion enrichment index
43 | G5A C6G U7G C9A G26U | 0.00112
44 | C6A U7A C9A U10A A23U C24G | 0.918
45 | C6A U7A C9G U10A | 0.286
46 | G5C C6U G8C C9U U10C G41C G42A | 2
47 | U3A C6A U7A C9A U10A | 0.664
48 | G5C C6G U7C U10C A37C G38C | 2.99
49 | U32C G33A | 0.0354
50 | G5A C6G U7G C9A G42C G43U | 0.00749
51 | G5A U7C G8A U10C C18G C19G | 2.62
52 | U10C G11U | 2.21
53 | G5C C6G U7C U10C U27A G28U | 1.9
54 | G5C C6G U7C U10C G28C A29C | 2.81
55 | C6A U7C C9A U10C A35U C36G | 0.375
56 | C16G U17A | 0.231
57 | G5A C6U U7A G8U C9A A45C G46U | 0.0134
58 | G5C C6A U7C G8A U10A G41A | 0.0572
59 | G5U C6U U7G G8U C9U | 0.119
60 | G5A C6U U7A G8U C9A U32G G33C | 0.0522
61 | G5A U7C G8A U10C G12C G13C | 0.397
62 | G5A C6G U7C C9A U10C | 0.602
63 | G5C C6A U7C G8A U10A C18G C19A | 0.143

Row | Variant | exon inclusion enrichment index
64 | G5C C6U G8C C9U U10C A29U A30C | 1.51
65 | G5C C6U G8C C9U U10C C44A A45U | 4.04
66 | G5A U7C G8A U10C G15A C16A | 1.46
67 | G5C C6U G8C C9U U10C G48C | 2.43
68 | G5U C6U U7A G8U C9U | 0.0321
69 | C16U U17G | 0.211
70 | G5C C6G U7C U10C G48A | 4.29
71 | C6A U7C C9A U10C U17C C18A | 3.17
72 | G5A C6U U7A G8U C9A G38A | 0.0251
73 | G5C C6U G8C C9U U10C C19A A20U | 0.553
74 | G5A C6G U7G C9A G42C | 0.0041
75 | U3G U4A G5C C6U G8C C9U U10C | 0.91
76 | G5C C6A U7C G8A U10A C22U A23G | 0.114
77 | G5C C6A U7C G8A U10A C22U A23U | 0.0622
78 | G5C C6U G8A C9G U10C | 0.184
79 | C6A U7A C9A U10A U17A C18U | 0.445
80 | G5A U7C G8A U10C G12U G13A | 0.238
81 | G5U G8U C9U A30C | 0.172
82 | G5A C6G U7G G8A C9G | 0.0105
83 | G5C C6G U7C U10C G11A G12U | 1.83
84 | G5C C6U G8C C9U U10C G21U C22A | 0.661
